Results from paper PMC4656997.

Target: GST-CTD substrate (human)

Row | Substance | KmCTD from in vitro kinase assay (32P-GST-CTD product) against varying concentrations of GST-CTD substrate [µM] | KmCTD from in vitro kinase assay (32P-GST-CTD product) against varying concentrations of GST-CTD substrate, 10 μM ATP, 15 min [µM]
1 | CDK12^715–1052/CycK^11–267 complex (from UniProt Q9NYV4 715-1052; O75909 11-267) | 2 | –
2 | full length CDK12/CycK1 complex (from UniProt Q9NYV4-1 1-1490; O75909 1-580) | – | 0.3
